In patent US20240115706A1 (LG CHEM, published 2024):

T1: monkey GUCY2C-rCD4 fusion protein (Macaca fascicularis (crab-eating …, limits assumed))
T1 construct: Prepared by the same method as the human antigen; also called Cy-GUCY2C-rCD4; monkey GUCY2C recombinant antigen
T1 chain: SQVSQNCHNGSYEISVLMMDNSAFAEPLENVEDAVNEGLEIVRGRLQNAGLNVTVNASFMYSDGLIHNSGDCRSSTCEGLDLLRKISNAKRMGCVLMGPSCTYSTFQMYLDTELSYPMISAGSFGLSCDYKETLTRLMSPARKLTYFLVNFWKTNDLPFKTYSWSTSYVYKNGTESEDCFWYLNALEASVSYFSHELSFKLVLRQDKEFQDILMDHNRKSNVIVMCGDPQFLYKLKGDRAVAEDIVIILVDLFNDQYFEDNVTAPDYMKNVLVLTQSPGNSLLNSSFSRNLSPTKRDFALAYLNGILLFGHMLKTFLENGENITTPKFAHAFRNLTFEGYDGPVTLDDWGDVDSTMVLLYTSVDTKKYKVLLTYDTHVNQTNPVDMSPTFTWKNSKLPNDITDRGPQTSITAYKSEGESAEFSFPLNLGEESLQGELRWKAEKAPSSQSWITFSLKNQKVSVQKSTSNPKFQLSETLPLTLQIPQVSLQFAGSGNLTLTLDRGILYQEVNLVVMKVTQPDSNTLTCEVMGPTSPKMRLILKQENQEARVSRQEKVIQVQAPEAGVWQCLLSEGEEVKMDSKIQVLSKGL


Columns and labels:
[1] = molecular target: T2, human GUCY2C-rCD4 fusion protein (Homo sapiens (human); Rattus norvegicus, biotinylated (site not given)); assay: ELISA (DELFIA), antigen on streptavidin plate, scFv culture solution, Eu-anti-tag Ab; binding ELISA, Hu-GUCY2C-rCD4 antigen: binds
T2 construct: GUCY2C conjugated/fused with CD4; also called Hu-GUCY2C-rCD4; human GUCY2C recombinant antigen
Experimental: (§1) More specifically, GUCY2C-rCD4 fusion protein, in which the prepared human GUCY2C (SEQ ID NO: 112), monkey GUCY2C (SEQ ID NO: 114), and mouse GUCY2C (SEQ ID NO: 113) were fused, respectively, was bound to a place coated with streptavidin in a Nunc Maxisorp™96 well plate. After removing all the synthetic proteins not combined with washing buffer, the anti-GUCY2C scFV obtained in the culture solution was incubated in each well. After that, the affinity was measured by reading signals DELFIA enhanced using Eu-anti-tag Ab.

[2] = molecular target: T2, human GUCY2C-rCD4 fusion protein; assay: ranking ELISA (DELFIA), 50 nM scFv on anti-FLAG, biotinylated antigen, streptavidin-Eu; affinity ranking ELISA, 50 nM: binds
Experimental: (§2) More specifically, after coating an anti-FLAG antibody in a MaxiSorb plate and binding by adding scFvs obtained previously, the remaining scFvs were removed by a washing process. Here, a biotinylated human-GUCY2C-rCD4 protein was incubated and combined, and then the affinity to the antigen was measured by reading signals by DELFIA enhancement with color development through streptavidin-Europlum.

[3] = molecular target: T2, human GUCY2C-rCD4 fusion protein; assay: ranking ELISA (DELFIA), 5 nM scFv on anti-FLAG, biotinylated antigen, streptavidin-Eu; affinity ranking ELISA, 5 nM: binds
Experimental: as §2

[4] = molecular target: T2, human GUCY2C-rCD4 fusion protein; assay: ranking ELISA (DELFIA), 5 nM scFv on anti-FLAG, biotinylated antigen, streptavidin-Eu
Experimental: as §2

[5] = molecular target: T2, human GUCY2C-rCD4 fusion protein; assay: ELISA (DELFIA), antigen on streptavidin plate, scFv culture solution, Eu-anti-tag Ab
Experimental: as §1

[6] = molecular target: T1, monkey GUCY2C-rCD4 fusion protein; assay: as above
Experimental: as §1

[7] = molecular target: T2, human GUCY2C-rCD4 fusion protein; assay: ranking ELISA (DELFIA), 50 nM scFv on anti-FLAG, biotinylated antigen, streptavidin-Eu
Experimental: as §2

[8] = molecular target: T3, GUCY2C on the cell surface (T84 colon carcinoma cells; HT29-GUCY2C cells) (human, UniProt P25092 24-1073); assay: flow cytometry on T84 cells, median MFI on live singlet cells (IgG-Fc-PE signal), scFv(-Fc) at 10 ug/mL
T3 construct: whole, on cells; also called GUCY2C expressing T84 cells; HT29 GCC cells
Experimental: (§3) Using cells naturally expressing GUCY2C, whether 18 kinds of scFvs produced in Example 1 could actually detect GUCY2C expression on the cell surface was confirmed. For this, a GUCY2C positive cancer cell, T84 colon carcinoma cell (ATCC® CCL248™) was used.
(§4) After separating the two cell lines using trypsin-EDTA, they were placed in FACS buffer (1×PBS+2% BSA). 10 ug/mL of each of the 18 kinds of scFvs and positive control group, 5F9 scFv was cultured with T84 and T-47D cells on ice for 1 hour. The scFv combined to cells was detected using 5 ug/mL IgG-Fc-PE Ab (BioLegend; 409304). The cells were cultured with ToPro®3 (live/dead stain) and then red with a flow cytometer.

[9] = molecular target: T2, human GUCY2C-rCD4 fusion protein; assay: SPR (Sierra SPR-32), scFv on protein G, antigen 800-12.5 nM, 25 C
Experimental: Furthermore, the affinity to the GUCY2C antigen of the 18 kinds of scFvs produced in Example 1 was measured by SPR (Surface plasmon resonance) analysis.
SPR assay was performed with association time 2 min and dissociation time 10 min under the condition of 25 degrees of Celsius using MASS2 (Sierra SPR-32; Bruker). The data were analyzed with Software R3.

[10] = molecular target: T3, GUCY2C on the cell surface (T84 colon …); assay: flow cytometry, scFv(-Fc) at 10 ug/mL on GUCY2C-positive T84 cells, detected with IgG-Fc-PE Ab (FL2-H)
Experimental: as §3, §4

| Binder | Binding ELISA signal [1] | Affinity Ranking ELISA (50 nM) signal [2] | Affinity Ranking ELISA (5 nM) signal [3] | Affinity Ranking ELISA (5 nM) signal [4] | Binding ELISA signal [5] | Binding ELISA signal [6] | Affinity Ranking ELISA (50 nM) signal [7] | binding result [8] | Kd [9] | binding result [10] |
| --- | --- | --- | --- | --- | --- | --- | --- | --- | --- | --- |
| scFv B01 (scFv, also called 2433_01_H07; H07) scFv: EVQLVQPGAEVKKPGSSVKVSCKASGGTLSSYAISWVRQAPGQGLEWMGRIIPILGITNYAQKFQGRVTITADKSTSTAYMELSSLRSEDTAVYFCARDQRPASMDVWGQGTLVTVSSGGGGSGGGGSGGGASQSGLTQPASVSGSPGQSITISCTGTSSDVGGYNYVSWYQQHPGKAPKLMIYEVSNRPSGVSNRFSGSKSGNTASLTISGLQAEDEADYYCSTVTSLSTYVFGTGTKLTVL |  |  |  | 26200 | 39400 | 4490 | 133000 |  | 335 nM | binds |
| scFv C07 (positive control), 5F9 scFv (scFv, also called 5F9 scFv-Fc) scFv: EIVMTQSPATLSVSPGERATLSCRASQSVSRNLAWYQQKPGQAPRLLIYGASTRATGIPARFSGSGSGTEFTLTIGSLQSEDFAVYYCQQYKTWPRTFGQGTNVEIKASGGGGSGGGGSGGGGSGGGGSELQVQLQQWGAGLLKPSETLSLTCAVFGGSFSGYYWSWIRQPPGKGLEWIGEINHRGNTNDNPSLKSRVTISVDTSKNQFALKLSSVTAADTAVYYCARERGYTYGNFDHWGQGTLVTVSS |  |  |  | 133000 | 83900 | 49200 | 184000 |  | 15 nM | binds |
| scFv B12 (scFv, also called 2437_02_G10) scFv: QVQLVESGGGLVKPGGSLRLSCAASGFTFSSYSMNWVRQAPGKGLEWVSVIYSGGSTHYADSVKGRFTISRHNSKNTLYLQMNSLRAEDTAVYYCARGAGTLNAFDIWGQGTTVTVSSGGGGSGGGGSGGGASQSGLTQPPSTSGSPGQSVTISCTGTSSDVGAYSYVSWYQQHPGKAPKLLIYAVTKRPSGVPDRFSGSKSGNTASLTVSGLQDEDEADYYCSSFAGGSTLVFGGGTKLTVL |  |  |  | 9590 | 30900 | 22100 | 77100 |  | 4540 nM | binds |
| scFv A01 (scFv, also called 2426_01_A02) scFv: QVQLVQSGAEVKKPGASVKVSCKASGYTFTSYYMHWVRQAPGQGLEWMGIINPSGGSTSYAQEFQGRVTMTRDTSTSTVYMELSSLRSEDTAVYYCARDGQWLQFDYWGQGTLVTVSSGGGGSGGGGSGGGASDIVMTQSPLSLPVTLGQPASISCRSSQSLLKKSDGNTYLSWYHQRPGQSPRRLIYKVSNRDSGVPDRFSGSGSDTDFTLKISRVETEDVGIYYCMQGSHWPPTFGQGTKVEIK | 30200 | 104000 | 13800 |  |  | 28100 |  |  |  |  |

Further lines, results first:

| Binding ELISA signal [1] | Affinity Ranking ELISA (50 nM) signal [2] | Affinity Ranking ELISA (5 nM) signal [3] | Affinity Ranking ELISA (5 nM) signal [4] | Binding ELISA signal [5] | Binding ELISA signal [6] | Affinity Ranking ELISA (50 nM) signal [7] | binding result [8] | Kd [9] | binding result [10] | Binder |
| --- | --- | --- | --- | --- | --- | --- | --- | --- | --- | --- |
| 61100 | 153000 | 23300 |  |  |  |  |  |  |  | scFv B08 (scFv, also called 2436_02_F11) scFv: EVQLVQSGAEVKKPGSSVKVSCKASGGTFSSYAISWVRQAPGQGLEWMGGIIPIFGTANYAQKFQGRVTITADKSTSTAYMELSSLRSEDTAVYYCARGHYYYMDVWGQGTTVTVSSGGGGSGGGGSGGGASDIVMTQSPATLSVSPGEGATLSCRASQSVSSNLAWYQQKPGRAPRLLIYGASTRATGIPARFSGSGSGTEFTLTISSLQSEDFAVYYCQQYNNWPSFGGGTKLEIK |
|  |  |  | 14800 | 37500 | 23600 | 89600 | binds | 1330 nM |  | scFv B11 (scFv, also called 2437_02_G07; G07) scFv: QVQLVESGAEVKKPGSSVKVSCKASGGTFSSYAISWVRQAPGQGLEWMGGIIPIFGTANYAQKFQGRVTITADESTSTAYMELSGLRSEDTAVYYCARGIQPLRYYGMDVWGQGTLVTVSSGGGGSGGGGSGGGASQSALTQPPSASGTPGQRVTISCSGSSSNIGSNYVYWYQQLPGTAPKLLIYRNNQRPSGVPDRFSGSKSGTSASLAISGLRSEDEADYYCAAWDDSLSGRGVFGGGTQLTVL |
| 58100 | 54800 | 8700 |  |  |  |  |  |  |  | scFv A08 (scFv, also called 2432_01_D05) scFv: EVQLLESGGGLVQPGGSLRLSCAASGFTFSSYWMSWVRQAPGKGLEWVANIKQDGSEKYYVDSVKGRFTISRDNAKNSLYLQMNSLRAEDTAVYYCAKAPWYSSSPTPYGMDVWGQGTLVTVSSGGGGSGGGGSGGGASDIQMTQSPSSLSASVGDRVTITCQASQDISNYLNWYQQKPGKAPRRLIYGASTLMSGVPSRFSGSGSGTDFTLTISSLQPEDFATYYCQQSYSTPLTFGGGTKVEIK |
